The record followed here is article PMC8675521, “Improved methanol tolerance of Rhizomucor miehei lipase based on N‑glycosylation within the α-helix region and its application in biodiesel production” (Biotechnology for Biofuels, 2021).

Substrate in this series: CCCCCCCCCCCCCCCC(=O)Oc1ccc([N+](=O)[O-])cc1
In words: purified protein. Conditions: 50 mM PBS pH 8.0, 40 °C, 5 min. Type of series: biochemical, Rhizomucor miehei.

Setting [1] is: N115, made on N9A/N59A template, N-glycosylated.
The mark [2] stands for this setting: N218, made on N9A/N59A template, N-glycosylated.
Where [3] appears, read: N93 [sic], made on N9A/N59A template, N-glycosylated.
[4] abbreviates: propeptide N-glycosylation sites removed.
[5] abbreviates: N260 [sic], made on N9A/N59A template, N-glycosylated.
Where [6] appears, read: printed N183, made on N9A/N59A template, N-glycosylated.

B1: ProRML (Rhizomucor miehei lipase with propeptide) (Rhizomucor miehei) (protein)
chain: AVPIKRQSNSTVDSLPPLIPSRTSAPSSSPSTTDPEAPAMSRNGPLPSDVETKYGMALNATSYPDSVVQAMSIDGGIRAATSQEINELTYYTTLSANSYCRTVIPGATWDCIHCDATEDLKIIKTWSTLIYDTNAMVARGDSEKTIYIVFRGSSSIRNWIADLTFVPVSYPPVSGTKVHKGFLDSYGEVQNELVATVLDQFKQYPSYKVAVTGHSLGGATALLCALDLYQREEGLSSSNLFLYTQGQPRVGDPAFANYVVSTGIPYRRTVNERDIVPHLPPAAFGFLHAGEEYWITDNSPETVQVCTSDLETSDCSNSIVPFTSVLDHLSYFGINTGLCT
notes: propeptide plus mature peptide, plasmid pPIC9K (alpha-factor secretion), Pichia pastoris GS115, HisTrap purified; about 40 kDa unglycosylated, mutants about 55 kDa N-glycosylated
As usually defined, the Km is the concentration of substrate that gives half-maximal velocity. For orientation: kcat means the number of substrate molecules converted per active site and unit of time at saturation. What is called kcat/Km is the second-order rate constant that governs catalysis at low substrate concentration. For B1, the Km stood at 1160 µM, the kcat came to 1.75 ± 0.0493 s⁻¹ and the kcat/Km is 1510 ± 42.5 M⁻¹ s⁻¹.

B2: ProRML (Rhizomucor miehei lipase with propeptide) (Rhizomucor miehei; D138N/N32A/N82A) (protein)
chain: AVPIKRQSASTVDSLPPLIPSRTSAPSSSPSTTDPEAPAMSRNGPLPSDVETKYGMALAATSYPDSVVQAMSIDGGIRAATSQEINELTYYTTLSANSYCRTVIPGATWDCIHCNATEDLKIIKTWSTLIYDTNAMVARGDSEKTIYIVFRGSSSIRNWIADLTFVPVSYPPVSGTKVHKGFLDSYGEVQNELVATVLDQFKQYPSYKVAVTGHSLGGATALLCALDLYQREEGLSSSNLFLYTQGQPRVGDPAFANYVVSTGIPYRRTVNERDIVPHLPPAAFGFLHAGEEYWITDNSPETVQVCTSDLETSDCSNSIVPFTSVLDHLSYFGINTGLCT
notes: as for B1
Turning to B2, under setting [1], the Km was 640 µM, the kcat turned out to be 7.26 ± 0.277 s⁻¹ and the kcat/Km was found to be 11300 ± 432 M⁻¹ s⁻¹.

B3: ProRML (Rhizomucor miehei lipase with propeptide) (Rhizomucor miehei; G241N/N32A/N82A) (protein)
chain: AVPIKRQSASTVDSLPPLIPSRTSAPSSSPSTTDPEAPAMSRNGPLPSDVETKYGMALAATSYPDSVVQAMSIDGGIRAATSQEINELTYYTTLSANSYCRTVIPGATWDCIHCDATEDLKIIKTWSTLIYDTNAMVARGDSEKTIYIVFRGSSSIRNWIADLTFVPVSYPPVSGTKVHKGFLDSYGEVQNELVATVLDQFKQYPSYKVAVTGHSLGNATALLCALDLYQREEGLSSSNLFLYTQGQPRVGDPAFANYVVSTGIPYRRTVNERDIVPHLPPAAFGFLHAGEEYWITDNSPETVQVCTSDLETSDCSNSIVPFTSVLDHLSYFGINTGLCT
notes: as for B1
For B3, under setting [2], the Km amounted to 13200 µM and the kcat/Km amounted to 64800 ± 1970 M⁻¹ s⁻¹.

B4: ProRML (Rhizomucor miehei lipase with propeptide) (Rhizomucor miehei; N32A/N82A/T116N) (protein)
chain: AVPIKRQSASTVDSLPPLIPSRTSAPSSSPSTTDPEAPAMSRNGPLPSDVETKYGMALAATSYPDSVVQAMSIDGGIRAATSQEINELTYYTNLSANSYCRTVIPGATWDCIHCDATEDLKIIKTWSTLIYDTNAMVARGDSEKTIYIVFRGSSSIRNWIADLTFVPVSYPPVSGTKVHKGFLDSYGEVQNELVATVLDQFKQYPSYKVAVTGHSLGGATALLCALDLYQREEGLSSSNLFLYTQGQPRVGDPAFANYVVSTGIPYRRTVNERDIVPHLPPAAFGFLHAGEEYWITDNSPETVQVCTSDLETSDCSNSIVPFTSVLDHLSYFGINTGLCT
notes: as for B1
Regarding B4, under setting [3], the Km came to 4700 µM, the kcat came out at 63.6 ± 2.62 s⁻¹ and the kcat/Km was determined as 13500 ± 558 M⁻¹ s⁻¹.

B5: ProRML (Rhizomucor miehei lipase with propeptide) (Rhizomucor miehei; N32A/N82A) (protein)
chain: AVPIKRQSASTVDSLPPLIPSRTSAPSSSPSTTDPEAPAMSRNGPLPSDVETKYGMALAATSYPDSVVQAMSIDGGIRAATSQEINELTYYTTLSANSYCRTVIPGATWDCIHCDATEDLKIIKTWSTLIYDTNAMVARGDSEKTIYIVFRGSSSIRNWIADLTFVPVSYPPVSGTKVHKGFLDSYGEVQNELVATVLDQFKQYPSYKVAVTGHSLGGATALLCALDLYQREEGLSSSNLFLYTQGQPRVGDPAFANYVVSTGIPYRRTVNERDIVPHLPPAAFGFLHAGEEYWITDNSPETVQVCTSDLETSDCSNSIVPFTSVLDHLSYFGINTGLCT
notes: as for B1
Take B5: under setting [4], the Km turned out to be 350 µM, the kcat is 0.844 ± 0.0385 s⁻¹ and the kcat/Km came out at 2420 ± 111 M⁻¹ s⁻¹.

B6: ProRML (Rhizomucor miehei lipase with propeptide) (Rhizomucor miehei; N32A/N82A/V283N) (protein)
chain: AVPIKRQSASTVDSLPPLIPSRTSAPSSSPSTTDPEAPAMSRNGPLPSDVETKYGMALAATSYPDSVVQAMSIDGGIRAATSQEINELTYYTTLSANSYCRTVIPGATWDCIHCDATEDLKIIKTWSTLIYDTNAMVARGDSEKTIYIVFRGSSSIRNWIADLTFVPVSYPPVSGTKVHKGFLDSYGEVQNELVATVLDQFKQYPSYKVAVTGHSLGGATALLCALDLYQREEGLSSSNLFLYTQGQPRVGDPAFANYVNSTGIPYRRTVNERDIVPHLPPAAFGFLHAGEEYWITDNSPETVQVCTSDLETSDCSNSIVPFTSVLDHLSYFGINTGLCT
notes: as for B1
For B6, under setting [5], the Km was found to be 1250 µM, the kcat was found to be 4.89 ± 0.149 s⁻¹ and the kcat/Km was found to be 3930 ± 120 M⁻¹ s⁻¹.

B7: ProRML (Rhizomucor miehei lipase with propeptide) (Rhizomucor miehei; L206N/N32A/N82A) (protein)
chain: AVPIKRQSASTVDSLPPLIPSRTSAPSSSPSTTDPEAPAMSRNGPLPSDVETKYGMALAATSYPDSVVQAMSIDGGIRAATSQEINELTYYTTLSANSYCRTVIPGATWDCIHCDATEDLKIIKTWSTLIYDTNAMVARGDSEKTIYIVFRGSSSIRNWIADLTFVPVSYPPVSGTKVHKGFNDSYGEVQNELVATVLDQFKQYPSYKVAVTGHSLGGATALLCALDLYQREEGLSSSNLFLYTQGQPRVGDPAFANYVVSTGIPYRRTVNERDIVPHLPPAAFGFLHAGEEYWITDNSPETVQVCTSDLETSDCSNSIVPFTSVLDHLSYFGINTGLCT
notes: as for B1
With B7, under setting [6], the Km amounted to 360 µM, the turnover number (kcat) was determined as 1.186 ± 0.00633 s⁻¹ and the kcat/Km came out at 3258 ± 17.5 M⁻¹ s⁻¹.
